According to publication PMC7642358 (Nature Communications, 2020):

These binders were tested against SARS-CoV-2 spike receptor-binding domain (2019-nCoV RBD-SD1, residues 319–566) (SARS-CoV-2, UniProt P0DTC2).

Binder | binding result
35 (VHH) VHH: QVQLVESGGGLVQAGGSLRLSCAASGFPVNYTIMFWYRQAPGKEREWVAAIKSTGEHTLYADSVKGRFTISRDNAKNTVYLQMNSLKPEDTAVYYCNVKDAGQGWQEYDYWGQGTQVTVS | binds
Sybody 2 (VHH) VHH: QVQLVESGGGLVQAGGSLRLSCAASGFPVSNEEMTWYRQAPGKEREWVAAIASNGNQTEYADSVKGRFTISRDNAKNTVYLQMNSLKPEDTAVYYCYVYVGASYIGQGTQVTVS | binds
25 (VHH) VHH: QVQLVESGGGLVQAGGSLRLSCAASGFPVESTEMTWYRQAPGKEREWVAAIESEGHGTEYADSVKGRFTISRDNAKNTVYLQMNSLKPEDTAVYYCYVYVGAGYIGQGTQVTVS | binds
27 (VHH) VHH: QVQLVESGGGLVQAGGSLRLSCAASGFPVKASEMVWYRQAPGKEREWVAAILSQGHATEYADSVKGRFTISRDNAKNTVYLQMNSLKPEDTAVYYCYVWVGRSYIGQGTQVTVS | binds
Sybody 10 (VHH) VHH: QVQLVESGGGLVQAGGSLRLSCAASGFPVESAEMEWYRQAPGKEREWVAAITSQGTITEYADSVKGRFTISRDNAKNTVYLQMNSLKPEDTAVYYCYVYVGASYIGQGTQVTVS | binds
19 (VHH) VHH: QVQLVESGGGLVQAGGSLRLSCAASGFPVYNEEMTWYRQAPGKEREWVAAIASYGRLTEYADSVKGRFTISRDNAKNTVYLQMNSLKPEDTAVYYCYVYVGQSYIGQGTQVTVS | binds
Sybody 3 (VHH) VHH: QVQLVESGGGLVQAGGSLRLSCAASGFPVSHTEMTWYRQAPGKEREWVAAIESQGVYTHYADSVKGRFTISRDNAKNTVYLQMNSLKPDDTAVYYCYVYVGGGYIGQGTQVTVS | binds
31 (VHH) VHH: QVQLVESGGGLVQAGGSLRLSCAASGFPVWSAEMTWYRQAPGKEREWVAAINSHGRITEYADSVKGRFTISRDNAKNTVYLQMNGLKPEDTAVYYCYVYVGKSYIGQGTQVTVS | binds
Sybody 5 (VHH) VHH: QVQLVESGGGLVQAGGSLRLSCAASGFPVAQQEMTWYRQAPGKEREWVAAISSIGSITHYADSVKGRFTISRDNAKNTVYLQMNSLKPEDTAVYYCYVYVGASYIGQGTQVTVS | binds
Sybody 17 (VHH) VHH: QVQLVESGGGLVQAGGSLRLSCAASGFPVKASEMEWYRQAPGKEREWVAAIASIGYNTYYADSVKGRFTISRDNAKNTVYLQMNSLKPEDTAVYYCLVYVGATYIGQGTQVTVS | binds
Sybody 1 (VHH) VHH: QVQLVESGGGLVQAGGSLRLSCAASGFPVNTSEMAWYRQAPGKEREWVAAIESSGDETYYADSVKGRFTISRDNAKNTVYLQMNSLKPEDTAVYYCYVYVGGSYLGQGTQVTVS | binds
Sybody 7 (VHH) VHH: QVQLVESGGGLVQAGGSLRLSCAASGFPVNAEEMEWYRQAPGKEREWVAAISSSGDWTYYADSVKGRFTISRDNAKNTVYLQMNSLKPEDTAVYYCLVYVGSTYIGQGTQVTVS | binds
21 (VHH) VHH: QVQLVESGGGLVQAGGSLRLSCAASGFPVKESEMTWYRQARGKEREWVAAINSHGMTTHYADSVKGRFTISRDNAKNTVYLQMNSLKPEDTAVYYCYVYVGGSYIGQGTQVTVS | binds
24 (VHH) VHH: QVQLVESGGGLVQAGGSLRLSCAASGFPVSTAEMEWYRQAPGKEREWVAAISSSGTWTYYADSVKGRFTISRDNAKNTVYLQMNSLKPEDTAVYYCYVWVGSSYLGQGTQVTVS | binds
Sybody 16 (VHH) VHH: QVQLVESGGGLVRAGGSLRLSCAASGFPVASQEMTWYRQAPGKEREWVAAISSSGRQTEYADSVKGRFTISRDNAKNTVYLQMNSLKPEDTAVYYCYVYVGGSYIGQGTQVTVS | binds
Sybody 4 (VHH) VHH: QVQLVESGGGLVQAGGSLRLSCAASGFPVNGFNMEWYRQAPGKEREWVAAITSEGNYTYYADSVKGRFTISRDNAKNTVYLQMNSLKPEDTAVYYCYVYVGQSYIGQGTQVTVS | binds
28 (VHH) VHH: QVQLVESGGGLVQAGGSLRLSCAASGFPVYSAEMEWYRQAPGKEREWVAAISSYGTNTYYADSVKGRFTISRDNAKNTVYLQMNSLKPEDTAVYYCYVYVGSSYIGQGTQVTVS | binds

Binder | binding result
Sybody 14 (VHH) VHH: QVQLVESGGGLVQAGGSLRLSCAASGFPVATAEMVWYRQAPGKEREWVAAIMSAGQETEYADSVKGRFTISRDNAKNTVYLQMNSLKPEDTAVYYCYVWVGKSYIGQGTQVTVS | binds
30 (VHH) VHH: QVQLVESGGGLVQAGGSLRLSCAASGFPVWYKEMEWYRQAPGKEREWVAAITSAGHHTYYADSVKGRFTISRDNAKNTVYLQMNSLKPEDTAVYYCYVYVGESYIGQGTQVTVS | binds
Sybody 9 (VHH) VHH: QVQLVESGGGLVQAGGSLRLSCAASGFPVGQQHMYWYRQAPGKEREWVAAIYSYGHITKYADSVKGRFTISRDNAKNTVYLQMNSLKPEDTAVYYCWVYVGDYYEGQGTQVTVS | binds
36 (VHH) VHH: QVQLVESGGGLVQAGGSLRLSCAASGFPVEWKHMTWYRQAPGKEREWVAAIASTGAYTHYADSVKGRFTISRDNAKNTVYLQMNSLKPEDTAVYYCNVKDWGSKTTYYDYWGQGTQVTVS | binds
38 (VHH) VHH: QVQLVESGGGLVQAGGSLRLSCAASGFPVYWAHMTWYRQAPGKEREWVAAIVSSGAYTAYADSVKGRFTISRDNAKNTVYLQMNSLKPEDTAVYYCNVKDFGTQEHYYDYWGQGTQVTVS | binds
37 (VHH) VHH: QVQLVESGGGLVQAGGSLRLSCAASGFPVYNTWMEWYRQAPGKEREWVAAITSYGFHTYYADSVKGRFTISRDNAKNTVYLQMNSLKPEDTAVYYCNVKDEGNTTAYYDYWGQGTQVTVS | binds
18 (VHH) VHH: QVQLVESGGGLVQAGGSLRLSCAASGFPVDYKSMWWYRQAPGKEREWVAAIDSAGDTTTYADSVKGRFTISRDNAKNTVYLQMNSLKPEDTAVYYCTVWVGTTYTGQGTQVTVS | binds
32 (VHH) VHH: QVQLVESGGGLVQAGGSLRLSCAASGFPVAHKSMWWYRQAPGKEREWVAAIESTGDTTRYADSVKGRFTISRDNAKNTVYLQMNSLKPEDTAVYYCVVWVGEVYRGQGTQVTVS | binds
Sybody 11 (VHH) VHH: QVQLVESGGGLVQAGGSLRLSCAASGFPVRTENMHWYRQAPGKEREWVAAIYSFGATMLYADSVKGRFTISRDNAKNTVYLQMNSLKPEDTAVYYCAVNVGEWYEGQGTQVTVS | binds
Sybody 8 (VHH) VHH: QVQLVESGGGLVQAGGSLRLSCAASGFPVKSYEMEWYRQAPGKEREWVAAISSYGEYTEYADSVKGRFTISRDNAKNTVYLQMNSLKPEDTAVYYCYVWVGDSYLGQGTQVTVS | binds
Sybody 13 (VHH) VHH: QVQLVESGGGLVQAGGSLRLSCAASGFPVENYYMRWYRQAPGKEREWVAAIESSGAETRYADSVKGRFTISRDNAKNTVYLQMNSLKPEDTAVYYCYVVVGWGYAGQGTQVTVS | binds
33 (VHH) VHH: QVQLVESGGGLVQAGGSLRLSCAASGFPVKTAEMEWYRQAPGKEREWVAAISSTGKSTFYADSVKGRFTISRDNAKNTVYLQMNSLKPEDTAVYYCHVYVGRTYIGQGTQVTVS | binds
29 (VHH) VHH: QVQLVESGGGLVQAGGSLRLSCAASGFPVHYTYMRWYRQAPGKEREWVAAIKSYGQHTTYADSVKGRFTISRDNAKNTVYLQMNSLKPEDTAVYYCEVVGETYRGQGTQVTVS | binds
Sybody 6 (VHH) VHH: QVQLVESGGGLVQAGGSLRLSCAASGFPVNHTRMYWYRQAPGKEREWVAAIQSHGQNTFYADSVKGRFTISRDNAKNTVYLQMNSLKPEDTAVYYCYVWVGNQYWGQGTQVTVS | binds
22 (VHH) VHH: QVQLVESGGGLVQAGGSLRLSCAASGFPVNHYEMEWYRQAPGREREWVAAIMDSTGYETAYADSVKGRFTISRDNAKNTVYLQMNSLKPEDTAVYYCYVYVGASYIGQGTQVTVS | binds
39 (VHH) VHH: QVQLVESGGGPVQAGGSLRLSCAASGFPVMWSHMHWYRQAPGKEREWVAAIVSYGAYTIYADSVKGRFTISRDNAKNTVYLQMNSLKPEDTAVYYCNVKDFGGYRYYYDYWGQGTQVTVS | binds
Sybody 15 (VHH) VHH: QVQLVESGGGLVQAGGSLRLSCAASGFPVYEHYMRWYRQAPGKEREWVAAIQSHGNHTAYADSVKGRFTISRDNAKNTVYLQMNSLKPEDTAVYYCFVVVGNGYTGQGTQVTVS | binds
